Measured values reported in PMC4805542.

System: ZF6-KRAB (synthetic construct)
Assay: EMSA
Conditions: 2.5 uM protein, DNA titrated 130-200 nM; apparent Kd, Scatchard; 6.25 mM MgCl2; 25 mM Hepes pH 7.9, 50 mM KCl, 6.25 mM MgCl2, 1% Nonidet P-40, 5% glycerol; 15 min on ice; 5% PAGE in 0.5x TBE at 4 C

Substance: hRHO 65 bp duplex oligonucleotide
- Kd: 108 nM
